Results reported in paper PMC4369446 (2015).

B1: SIG35α / TRBV27 Cl.794 (TCR)
alpha TRAV12-2 J35 CDR3: CAVSIGFGNVL
beta TRBV27 TRBJ1-2 CDR3: CASSLLGDYGYTF
B2: SIG35α / TRBV27 Cl.1599 (TCR)
alpha TRAV12-2 J35 CDR3: CAVSIGFGNVL
beta TRBV27 TRBJ1-1 CDR3: CASSFLGAMAEAFF
B3: SIG35α / TRBV27 Cl.1606 (TCR)
alpha TRAV12-2 J35 CDR3: CAVSIGFGNVL
beta TRBV27 TRBJ2-7 CDR3: CASSLLGSYEQYF
B4: SIG35α / TRBV27 Cl.1574 (TCR)
alpha TRAV12-2 J35 CDR3: CAVSIGFGNVL
beta TRBV27 TRBJ1-1 CDR3: CASSPWERINTEAFF
B5: SIG35α / TRBV27 Cl.1593 (TCR)
alpha TRAV12-2 J35 CDR3: CAVSIGFGNVL
beta TRBV27 TRBJ1-5 CDR3: CASGNNQPQHF
B6: SIG35α / TRBV27 Cl.758 (TCR)
alpha TRAV12-2 J35 CDR3: CAVSIGFGNVL
beta TRBV27 TRBJ2-2 CDR3: CASSPRLAGDGELFF
B7: SIG35α / TRBV27 Cl.1086 (TCR)
alpha TRAV12-2 J35 CDR3: CAVSIGFGNVL
beta TRBV27 TRBJ1-2 CDR3: CASSLHGPGGYTF
B8: SIG35α / TRBV27 Cl.788 (TCR)
alpha TRAV12-2 J35 CDR3: CAVSIGFGNVL
beta TRBV27 TRBJ2-7 CDR3: CASGPSYEQYF
B9: SIG35α / TRBV27 Cl.523 (TCR)
alpha TRAV12-2 J35 CDR3: CAVSIGFGNVL
beta TRBV27 TRBJ2-7 CDR3: CASGSYEQYF
B10: SIG35α / TRBV27 Cl.413 (TCR)
alpha TRAV12-2 J35 CDR3: CAVSIGFGNVL
beta TRBV27 TRBJ1-4 CDR3: CASSVFGGDMGEKLFF

Target: T1, ABC transporter MOAT-C peptide on HLA-A*02:01 (human)
T1 peptide: RISDIGLADL
Assay: cytokine release

binding result | Binder
no recognition | B1
no recognition | B2
no recognition | B3
no recognition | B4
no recognition | B5
no recognition | B6
no recognition | B7
no recognition | B8
no recognition | B9
no recognition | B10

Target: T2, KIAA0735 peptide on HLA-A*02:01 (human)
T2 peptide: LISGIGIGGA
Assay: cytokine release

binding result | Binder
recognises | B1
recognises | B2
recognises | B3
recognises | B4
recognises | B5
no recognition | B6
no recognition | B7
no recognition | B8
recognises | B9
no recognition | B10

Target: T3, Hypothetical 20 kD protein peptide on HLA-A*02:01 (human)
T3 peptide: RISAIILHPN
Assay: cytokine release

binding result | Binder
no recognition | B1
no recognition | B2
no recognition | B3
no recognition | B4
no recognition | B5
no recognition | B6
no recognition | B7
no recognition | B8
no recognition | B9
no recognition | B10

Target: T4, Endothelin-1 receptor peptide on HLA-A*02:01 (human)
T4 peptide: RVQGIGIPLV
Assay: cytokine release

binding result | Binder
no recognition | B1
no recognition | B2
no recognition | B3
no recognition | B4
no recognition | B5
no recognition | B6
no recognition | B7
no recognition | B8
no recognition | B9
no recognition | B10

Target: T5, G-protein coupled receptor RE2 peptide on HLA-A*02:01 (human)
T5 peptide: RITDLGLSPH
Assay: cytokine release

binding result | Binder
recognises | B1
recognises | B2
recognises | B3
recognises | B4
recognises | B5
recognises | B6
no recognition | B7
recognises | B8
recognises | B9
no recognition | B10

Target: T6, IGHG1 peptide on HLA-A*02:01 (human)
T6 peptide: RLSELAIFGV
Assay: cytokine release

binding result | Binder
no recognition | B1
no recognition | B2
no recognition | B3
no recognition | B4
no recognition | B5
no recognition | B6
no recognition | B7
no recognition | B8
no recognition | B9
no recognition | B10

Target: T7, Monocarboxylate transporter 8 peptide on HLA-A*02:01 (human)
T7 peptide: AVAFIGLHTS
Assay: cytokine release

binding result | Binder
no recognition | B1
no recognition | B2
no recognition | B3
no recognition | B4
no recognition | B5
no recognition | B6
no recognition | B7
no recognition | B8
no recognition | B9
no recognition | B10

Target: T8, MRP3 peptide on HLA-A*02:01 (human)
T8 peptide: NVADIGFHDV
Assay: cytokine release

binding result | Binder
no recognition | B1
no recognition | B2
no recognition | B3
no recognition | B4
no recognition | B5
no recognition | B6
no recognition | B7
no recognition | B8
no recognition | B9
no recognition | B10

Target: T9, KIAA0935 peptide on HLA-A*02:01 (human)
T9 peptide: RVTDEAGHPV
Assay: cytokine release

binding result | Binder
no recognition | B1
no recognition | B2
no recognition | B3
no recognition | B4
no recognition | B5
no recognition | B6
no recognition | B7
no recognition | B8
no recognition | B9
no recognition | B10

Target: T10, cMOAT2 peptide on HLA-A*02:01 (human)
T10 peptide: NVADIGLHDV
Assay: cytokine release

binding result | Binder
no recognition | B1
no recognition | B2
no recognition | B3
no recognition | B4
no recognition | B5
no recognition | B6
no recognition | B7
no recognition | B8
no recognition | B9
no recognition | B10

Target: T11, SLC1A1 peptide on HLA-A*02:01 (human)
T11 peptide: VLTGLAIHSI
Assay: cytokine release

binding result | Binder
no recognition | B1
no recognition | B2
recognises | B3
recognises | B4
no recognition | B5
no recognition | B6
no recognition | B7
no recognition | B8
no recognition | B9
no recognition | B10

Target: T12, P47 peptide on HLA-A*02:01 (human)
T12 peptide: RISDIRLFIV
Assay: cytokine release

binding result | Binder
no recognition | B1
no recognition | B2
no recognition | B3
no recognition | B4
no recognition | B5
no recognition | B6
no recognition | B7
no recognition | B8
no recognition | B9
no recognition | B10

Target: T13, Prostaglandin transporter peptide on HLA-A*02:01 (human)
T13 peptide: LLAGIGTVPI
Assay: cytokine release

binding result | Binder
recognises | B1
recognises | B2
recognises | B3
recognises | B4
recognises | B5
recognises | B6
recognises | B7
recognises | B8
recognises | B9
recognises | B10
